Experimental findings from US20210032294A1, “MODIFIED PlySs2 LYSINS AND USES THEREOF” (CONTRAFECT CORPORATION, priority 2018, published 2021) are described below.

For series [1], the system named is 1-day old biofilms formed by MSSA isolates. The series is described as follows: Minimum Biofilm Eradication Concentration (MBEC), MSSA biofilms. Type of series: cell-based, Staphylococcus aureus. To be noted: 24 hours treatment. As for the experimental part:
(§1) In some embodiments, the present modified lysin polypeptides are capable of reducing a biofilm. […] Biofilms are then washed and treated with e.g., a 2-fold dilution series of the lysin in TSBg at e.g., 37° C. for 24 hours. After treatment, wells are washed, air-dried at e.g., 37° C. and stained with e.g., 0.05% crystal violet for 10 minutes. After staining, the biofilms are destained in e.g., 33% acetic acid and the OD600 of e.g., extracted crystal violet is determined. The MBEC of each sample is the minimum lysin concentration required to remove >95% of the biofilm biomass assessed by crystal violet quantitation.
(§2) The anti-biofilm activity of pp296 was determined against 1-day old biofilms formed by 17 MSSA and 20 MRSA isolates in a 96-well broth microdilution format. The Minimum Biofilm Eradication Concentration (MBEC) values for pp296, compared to wild-type PlySs2 (CF-301), were determined by the following standard methodology. Bacteria were suspended in PBS (0.5 McFarland Units), diluted 1:100 in TSBg (66% tryptic soy broth, 0.2% glucose), added as 0.15 mL aliquots to 96-well polystyrene microplates, and incubated for 24 hours at 37° C. Biofilms were then washed and treated with a 2-fold dilution series of CF-301 or pp296 in TSBg at 37° C. for 24 hours. All samples were examined in triplicate. After treatment, wells were washed, air-dried at 37° C., and stained with 0.05% crystal violet for 10 min The loss of biofilm biomass was assessed visually, and crystal violet was quantitated by solubilization in 33% (vol/vol) acetic acid. The optical density of 600 nm (OD600) was determined using a SpectraMax M3 Multimode microplate reader. The MBEC of each sample was the minimum lysin concentration required to remove >95% of the biofilm biomass assessed by crystal violet quantitation.

A short description of series [2]: Toxicity screening in mice. Type of series: in vivo. As for the experimental part: Selected modified lysin polypeptides from Table 3 were subjected to further testing as described in more detail in subsequent Examples. […] The same 30 mg/kg dose of PlySs2 caused a 100% incidence of adventitial findings, which is an indication of potential toxicity.
Series [3] concerns MRSA isolates. As to the kind of experiment: MIC in CAMHB-HSD against MRSA isolates. Type of series: cell-based, Staphylococcus aureus. As to conditions: 51 MRSA isolates. As for the experimental part:
(§3) In vitro activity of the modified lysin polypeptide pp296 was assessed against a range of 51 MSSA and 51 MRSA isolates in cation-adjusted Mueller Hinton broth supplemented with 25% horse serum and 0.5 mM DTT (CAMHB-HSD) and compared to WT GMP grade PlySs2 (CF-301). CF-301 and pp296 were each diluted into CAMHB-HSD. For each lysin, the dilution series is set up such that, after a two-fold dilution of each well of the plate, the final concentrations contained: 64, 32, 16, 8, 4, 2, 1, 0.5, 0.25, and 0.125 μg/mL. Each lysin was tested in duplicate against each strain. Preparations were incubated overnight. Growth was visualized as a growth button approximately 2 mm in diameter. The highest dilution that yielded ≥80% growth inhibition was called the minimum inhibitory concentration (MIC). The activity of pp296 was very similar, within one 2-fold dilution, to that of CF-301, as shown below in Table 7.

The subject of series [4] is 5 MRSA strains and 5 MSSA strains. As to the kind of experiment: Checkerboard synergy assay with daptomycin or vancomycin. Type of series: cell-based, Staphylococcus aureus. As to conditions: MRSA (JMI-41293) strain.
Series [5] has as its system bacterial inoculum. As to the kind of experiment: Thermal stability: in vitro lytic assay after 30 min heating. Type of series: cell-based. As to conditions: 30 minutes at 37° C., 128 μg/mL in Tris buffer pH 8.0; CF-301 set at 100. The method, then:
Thermal stability was assessed by incubating the lysin polypeptides at a fixed concentration of 128 μg/mL in Tris buffer pH 8.0 for 30 minutes at various elevated temperatures (within the range of about 30° C. to 60° C.) prior to assessing activity. The samples were then cooled for 2 minutes on ice and activity was then assessed by an in vitro lytic assay by exposing a bacterial inoculum (OD600 ˜0.5-1.2) in Tris buffer to a 2-fold dilution series of each sample (diluted from 128-0.25 μg/mL across the x-axis of a 96 well microtiter plate). The loss of optical density was followed for 15 minute at room temperature, and the specific activity was determined based on the enzyme concentration enabling a 50% loss of optical density at 15 minutes. The enzyme activities of each variant were compared to the wild-type, CF-301 enzyme (GMT-grade PlySs2 protein) to calculate the % of Wild-Type Activity over a range of temperatures.
The thermal stability of wild-type, CF-301 was arbitrarily set at 100. The results for exemplary modified lysin polypeptides are set forth below in Table 5 at a single temperature of 37° C.:
In another experiment, the thermal stability of modified lysin polypeptides was assessed at different temperatures and compared with that of wild-type, CF-301 (set at 100).

Series [6] relates to 1-day old biofilms formed by MRSA isolates. The series is described as follows: Minimum Biofilm Eradication Concentration (MBEC), MRSA biofilms. In kind it is cell-based, Staphylococcus aureus. To be noted: 24 hours treatment. As for the experimental part: as §1, §2
For series [7], the system named is MSSA isolates. The series is described as follows: MIC in CAMHB-HSD against MSSA isolates. Type of series: cell-based, Staphylococcus aureus. As to conditions: 51 MSSA isolates. The method, then:
as §3

Series [8] has as its system 5 MRSA strains and 5 MSSA strains. The series is described as follows: Checkerboard synergy assay with daptomycin or vancomycin. Type of series: cell-based, Staphylococcus aureus. As to conditions: with vancomycin. The method, then:
Synergy studies with antibiotics suitable for treatment of Gram-positive bacteria, for example, daptomycin (DAP) and vancomycin (VAN), were performed using a checkerboard assay. Fractional inhibitory concentration (FIC) index values were determined for modified lysin polypeptide pp296 and antibiotic combinations against 5 methicillin-sensitive Staphylococcus aureus (MSSA) and 5 methicillin resistant Staphylococcus aureus (MRSA) isolates. An FIC index value of ≤0.5 may be interpreted as strong synergy between the two agents, while a value between 0.5 and 1 may still be considered a synergistic effect. Given that pp296 has four amino acid replacements in the catalytic domain, the ability of pp296 to synergize with antibiotics was unexpected. […] Qualitatively similar results may be anticipated upon performing similar assays using other de-immunized active variants, such as pp55, pp61, pp65, pp400, and pp619, in accordance with the present disclosure.
In another experiment, the ability of modified lysin polypeptide pp296 to synergize with daptomycin and vancomycin was assessed using a checkerboard analysis. FIC (fractional inhibitory concentration) index values were determined for pp296 and antibiotic combinations against 5 MSSA and 5 MRSA isolates. A total of 50 μl of Mueller-Hinton broth (BBL) was distributed into each well of microdilution plates. The first antibiotic of the combination was serially diluted along the ordinate, while the second drug was diluted along the abscissa. An inoculum equal to a 0.5 McFarland turbidity standard was prepared from each S. aureus isolate in MHB. Each microtiter well was inoculated with 100 μl of a bacterial inoculum of 5×10^5 CFU/ml, and the plates were incubated at 37° C. for 18 h under aerobic conditions. The resulting checkerboard contained each combination of two antibiotics, with wells that contained the highest concentration of each antibiotic at opposite corners. […] To quantify the interactions between the antibiotics being tested, the FIC index (the combination of antibiotics that produced the greatest change from the individual antibiotic's MIC) value was calculated for each strain and antibiotic combination as follows:
(A/MICA)+(B/MICB)=FICA+FICB=FIC index,
Checkerboards were generated using combinations of pp296 with either daptomycin or vancomycin against 5 MRSA strains (MW2, JMI-5675, JMI-4408, JMI-6181, and JMI-6182) and 5 MSSA strains (ATCC 29213, JMI-40979, JMI-43257, JMI-41293, and JMI-49315). Synergy was defined as inhibitory activity greater than what would be predicted by adding the two components together.

By MIC50 is commonly meant the lowest concentration that inhibits either 50% of growth or 50% of the strains tested, depending on the study. A lower MIC50 goes with greater potency. Usually MIC90 stands for the lowest concentration that inhibits either 90% of growth or 90% of the strains tested, depending on the study.

B1: CF-301: WT GMP grade PlySs2 lysin, SEQ ID NO: 1 (protein, listed as Streptococcus suis)
chain: MTTVNEALNNVRAQVGSGVSVGNGECYALASWYERMISPDATVGLGAGVGWVSGAIGDTISAKNIGSSYNWQANGWTVSTSGPFKAGQIVTLGATPGNPYGHVVIVEAVDGDRLTILEQNYGGKRYPVRNYYSAASYRQQVVHYITPPGTVAQSAPNLAGSRSYRETGTMTVTVDALNVRRAPNTSGEIVAVYKRGESFDYDTVIIDVNGYVWVSYIGGSGKRNYVATGATKDGKRFGNAWGTFK
Turning to B1, the MBEC50 in series [1] and in series [6] was 0.125 µg/mL throughout. Moreover, the MBEC90 in series [1] and in series [6] was 0.125 µg/mL each time. For the same molecule, the “MBEC Range” value in series [1] is 0.125 to 0.5 µg/mL; in series [6], 0.125 to 0.25 µg/mL. Also, the “Kidney findings (renal changes)” value in series [2] is “did not result in kidney findings”. The “Adventitial findings (lesions)” value in series [2] (30 mg/kg) is recorded as “all mice”. In addition, the “Incidence of adventitial findings” value in series [2] (30 mg/kg) worked out at 100%. The MIC50 in series [3] and in series [7] was 0.5 µg/mL throughout. Moreover, the MIC90 was 0.5 µg/mL in series [3] and 1 µg/mL in series [7]. Also, the “MIC Range” value in series [3] lay within 0.12 to 1 µg/mL; in series [7] it was 0.5 to 1 µg/mL. Also, the FIC index in series [4], in series [8] (MRSA JMI-6182), in series [8] (MSSA ATCC 29213), in series [8] (MSSA strain JMI-40979) and in series [8] (against 6 of the 10 strains examined) was 0.5 throughout. The “% Wild-Type Activity at 37° C.” value in series [5] was found to be 100%.
